T1: human LAG3 (Lymphocyte Activation Gene-3) expressed on cells (human, UniProt P18627 23-525)
T1 construct: also called hLAG3; CD223
T1 sequence: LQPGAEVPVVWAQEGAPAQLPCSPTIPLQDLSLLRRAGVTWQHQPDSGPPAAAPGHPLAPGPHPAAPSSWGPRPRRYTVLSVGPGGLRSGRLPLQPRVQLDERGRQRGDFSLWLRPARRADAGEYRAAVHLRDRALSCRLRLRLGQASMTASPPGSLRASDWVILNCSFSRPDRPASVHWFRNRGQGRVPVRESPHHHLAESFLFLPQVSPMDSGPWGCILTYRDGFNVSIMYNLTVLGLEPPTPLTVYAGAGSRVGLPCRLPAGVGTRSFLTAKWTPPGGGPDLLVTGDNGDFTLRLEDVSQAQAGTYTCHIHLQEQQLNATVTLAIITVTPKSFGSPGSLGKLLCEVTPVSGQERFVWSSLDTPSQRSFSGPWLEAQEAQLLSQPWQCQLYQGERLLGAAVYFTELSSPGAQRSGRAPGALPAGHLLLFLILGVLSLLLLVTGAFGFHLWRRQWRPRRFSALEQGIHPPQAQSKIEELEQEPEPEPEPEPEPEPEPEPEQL

T2: human LAG3-huFc recombinant protein (human, UniProt P18627 23-450, limits assumed, biotinylated in the runs with humanized and chimeric antibodies (Example 11))
T2 construct: also called human LAG3-Fc; huLAG3-huFc; not shown: human Fc
T2 sequence: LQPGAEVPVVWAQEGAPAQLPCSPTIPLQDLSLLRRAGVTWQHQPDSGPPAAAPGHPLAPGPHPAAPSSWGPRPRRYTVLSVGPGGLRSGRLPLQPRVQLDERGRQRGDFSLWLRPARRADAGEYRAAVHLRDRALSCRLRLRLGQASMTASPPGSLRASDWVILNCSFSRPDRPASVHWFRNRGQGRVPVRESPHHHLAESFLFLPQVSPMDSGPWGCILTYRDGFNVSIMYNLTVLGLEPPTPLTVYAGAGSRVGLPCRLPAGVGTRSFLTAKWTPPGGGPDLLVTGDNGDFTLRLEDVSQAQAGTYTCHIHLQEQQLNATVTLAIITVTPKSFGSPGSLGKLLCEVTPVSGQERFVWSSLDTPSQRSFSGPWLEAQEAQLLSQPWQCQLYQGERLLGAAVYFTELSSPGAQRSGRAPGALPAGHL


Experiments:
human CD4 = target: T3, human CD4 (human, UniProt P01730 26-458); assay: BiaCore (SPR)
T3 construct: whole, on cells; Tested on transfected L-cells by FACS and also by BiaCore

[1] = target: T1, human LAG3 (Lymphocyte Activation …); assay: flow cytometry, PHA-activated human CD4+ T cells (3 donors)
Procedure: (§1) Binding of LAG-3 mAb clones to primary T-cells was assessed using human and cynomolgous monkey (cyno) peripheral blood mononuclear cells (PBMC). Human blood was obtained from the local donors; cyno blood was obtained from Bioreclamation. PBMC were isolated from the whole blood using Ficoll-Paque Plus (GE Healthcare, Cat# 17-1440-03) density gradient centrifugation at 524×g for 40 minutes. PBMC were collected from the medium:plasma interface and washed 2 times with phosphate buffered saline (PBS). The residual red blood cells were lysed using ammonium-chloride-potassium red blood cell lysing solution (ACK, GIBCO, cat# A10492-010). Cynomolgus monkey or human PBMC (3×10⁶/ml) were stimulated with 4 μg/ml PHA (Sigma, L2769) for 48 h and 20 h, respectively. For flow cytometric analysis, 1×10⁶ PHA-activated PBMCs were used per staining in 50 μl FACS staining buffer (BD, cat# 554657). LAG-3 mAb clones or correspondent isotype controls were incubated with human or cyno PBMS followed by detection using goat anti-mouse IgG-PE (BD 550589). […] Sample acquisition was performed on an LSR II flow cytometer and the data were analyzed using FlowJo software version 10.0.6 (Tree Star, Inc.).
(§2) The data represent 3 human and 3 cynomolgus donors after stimulation with 4 ug/ml of PHA for 40 hours prior to staining.

[2] = target: T1, human LAG3 (Lymphocyte Activation …); assay: flow cytometry, PHA-activated human CD8+ T cells (3 donors)
Procedure: as §1, §2

[3] = target: T1, human LAG3 (Lymphocyte Activation …); assay: cell based KinExA, BaF/3 cells transfected with human LAG3 (n=3)
Procedure: The affinities of the LAG3 antibodies for LAG3 were determined using a cell based Kinetic Exclusion Assay (KinExA). Cell based KinExA can be used to measure the affinity of a molecule for a binding partner on a cell surface (Rathanaswami et al. Analylitical Biochemistry 373(1): 52-60 (2008); Xie et al. J. Immunol. Methods 304 (1-2): 1-14 (2005)). In this case, BaF/3 cells were stably transfected with human and cynomolgus monkey LAG3 proteins. Transfected cells or the parental BaF/3 control cell line were grown to a density of 1.7×10⁶ to 3.2×10⁶ cells per ml at 37° C., 120 RPM, 5% CO₂, in 1X RPMI 1640 media with 10% FBS, 10 ng/ml IL-3, 5 μg/ml puromycin. Cells were concentrated, mixed with 15 pM or 150 pM antibody in cell culture media and incubated 24 to 48 hours at room temperature while rotating at 20 to 30 RPM. Cells were present at a top concentration of 2×10⁷ cells per ml (parental BaF/3 or cynomolgus LAG3 transfectants) or 1×10⁷ cells per ml (human LAG3 transfectants) and diluted in a 2-fold, 18 member series. The cells were pelleted and free antibody in the supernatant was measured using a KinExA 3200 instrument (Sapidyne, Id., USA). […] Antibody on the beads was labeled with 1.5 μg/ml Alexa Fluor® 647 conjugated goat anti-human (Fab′)₂ (Jackson ImmunoResearch Laboratories), washed and the fluorescent signal was read all using the KinExA™ 3200. […]

[4] = target: T2, human LAG3-huFc recombinant protein; assay: flow cytometry, blockade of biotinylated human LAG3-huFc binding to MHC class II on Daudi cells, streptavidin-PE
Procedure: Mouse anti-human LAG3 and humanized anti-LAG3 clones were tested for their ability to block hLAG3 interaction with human MHC Class II. Daudi cells (ATCC #CCL-213) were used as a cell line positive for human MHC class II expression. Daudi cells were blocked with 10 ug/ml of goat IgG in HBSS and 2% BCS on ice for 30 minutes and 0.5×10⁶ cells/sample were aliquoted into a 96-well V-bottom plate and blocking buffer removed. […] Cells were pelleted by centrifugation at 1200 rpm and washed twice with HBSS/2% BCS. […] Cells were washed twice as described above, resuspended in HBSS/2% BCS and read on the FACSCalibur.

[5] = target: T1, human LAG3 (Lymphocyte Activation …); assay: cell based KinExA, BaF/3 cells transfected with human LAG3 (n=2)
Procedure: The affinities of the LAG3 antibodies for LAG3 were determined using a cell based Kinetic Exclusion Assay (KinExA). Cell based KinExA can be used to measure the affinity of a molecule for a binding partner on a cell surface (Rathanaswami et al. Analylitical Biochemistry 373(1): 52-60 (2008); Xie et al. J. Immunol. Methods 304 (1-2): 1-14 (2005)). In this case, BaF/3 cells were stably transfected with human and cynomolgus monkey LAG3 proteins. Transfected cells or the parental BaF/3 control cell line were grown to a density of 1.7×10⁶ to 3.2×10⁶ cells per ml at 37° C., 120 RPM, 5% CO₂, in 1X RPMI 1640 media with 10% FBS, 10 ng/ml IL-3, 5 μg/ml puromycin. Cells were concentrated, mixed with 15 pM or 150 pM antibody in cell culture media and incubated 24 to 48 hours at room temperature while rotating at 20 to 30 RPM. Cells were present at a top concentration of 2×10⁷ cells per ml (parental BaF/3 or cynomolgus LAG3 transfectants) or 1×10⁷ cells per ml (human LAG3 transfectants) and diluted in a 2-fold, 18 member series. The cells were pelleted and free antibody in the supernatant was measured using a KinExA 3200 instrument (Sapidyne, Id., USA). […] Antibody on the beads was labeled with 1.5 μg/ml Alexa Fluor® 647 conjugated goat anti-human (Fab′)₂ (Jackson ImmunoResearch Laboratories), washed and the fluorescent signal was read all using the KinExA™ 3200. The data from the 15 pM and 150 pM concentrations of each antibody were fit simultaneously using KinExA™ Pro n-Curve Analysis software version 4.0.11 (Sapidyne).

Row | Kd [5] [nM] | Binder | binding result (human CD4) | EC50 [1] [nM] | EC50 [2] [nM] | Kd [3] [nM] | IC50 [4] [nM]
1 |  | Ab6: humanized light chain 45AGX Humanized x[LAG3_H] mAb (LB145.22D2.E1.D1 (VL3)) Kappa (PX) and humanized heavy chain 73AHD Humanized x[LAG3_H] mAb … (antibody, Humanized 22D2 N55D, IgG4 S228P/kappa; also called Hu22D2 VH6/VL3 N55D (Ab 6); hu22D2 VH6/VL3 N55D) heavy: not shown light: DIVMTQTPLSLSVTPGQPASISCKASQSLDYEGDSDMNWYLQKPGQPPQLLIYGASNLESGVPDRFSGSGSGTDFTLKISRVEAEDVGVYYCQQSTEDPRTFGGGTKVEIKRTVAAPSVFIFPPSDEQLKSGTASVVCLLNNFYPREAKVQWKVDNALQSGNSQESVTEQDSKDSTYSLSSTLTLSKADYEKHKVYACEVTHQGLSSPVTKSFNRGEC | no binding | 0.039 | 0.033 | 0.002 | 2.4
2 | 0.011 | Ab8: humanized light chain 45AGX Humanized x[LAG3_H] mAb (LB145.22D2.E1.D1 (VL3)) Kappa (PX) and humanized heavy chain 80AHG Humanized x[LAG3_H] mAb … (antibody, Humanized 22D2 N55Q, IgG4 S228P/kappa; also called Hu22D2 VH6/VL3 N55Q (Ab 8); hu22D2 VH6/VL3 N55Q) heavy: not shown light: DIVMTQTPLSLSVTPGQPASISCKASQSLDYEGDSDMNWYLQKPGQPPQLLIYGASNLESGVPDRFSGSGSGTDFTLKISRVEAEDVGVYYCQQSTEDPRTFGGGTKVEIKRTVAAPSVFIFPPSDEQLKSGTASVVCLLNNFYPREAKVQWKVDNALQSGNSQESVTEQDSKDSTYSLSSTLTLSKADYEKHKVYACEVTHQGLSSPVTKSFNRGEC |  | 0.041 | 0.035 |  | 2.5
